Experimental data reported in the supplement of paper PMC7877785.
± gives the uncertainty stated by the source.

Test: self-splicing fitness, log relative to wild type (ln ratio); higher = more splicing; Tetrahymena group I intron in knt gene, E. coli kanamycin selection, DiMSum; sequences stand for … in CUCUCU…GGAGGGAAAAGUUAUCAGGCAUGCACCUGGUAGCUAGUCUUUAAACCAAUAGAUUGCAUCGGUUUAAAAGGCAAGACCGUCAAAUUGCGGGAAAGGGGUCAACAGCCGUUCAGUACCAAGUCUCAGGGGAAACUUUGAGAUGGCCUUGCAAAGGGUAUGGUAAUAAGCUGACGGACAUGGUCCUAACCACGCAGCCAAGUCCUAAGUCAACAGAUCUUCUGUUGAUAUGGAUGCAGUUCACAGACUAAAUGUCGGUCGGGGAAGAUGUAUUCUUCUCAUAAGAUAUAGUCGGACCUCUCCUUAAUGGGAGCUAGCGGAUGAAGUGAUGCAACACUGGAGCCGCUGGGAACUAAUUUGUAUGCGAAAGUAUAUUGAUUAGUUUUGGAGUACUCGUGGUCG
In short: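 Pooled colonies went to amplicon sequencing on an Illumina HiSeq 2500 after six replicate transformations. The plates were LB agar with 100 μg/mL carbenicillin, 50 μM IPTG and 0.2% rhamnose, with or without 25 μg/mL kanamycin, incubated overnight at 37°C or 30°C. The E. coli BL21(DE3) library had all eight P1ex-region intron nucleotides randomised, the intron placed in the knt kanamycin-resistance gene on pET-22b(+). DiMSum fitness is the error-weighted combination of replicate fold changes, kanamycin against none, normalised to wild type.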

Sequence	self-splicing fitness (ln) (30 °C)	self-splicing fitness (ln) (37 °C)
CUAUAGCAAUAUUACGUAAU	-2.07 ± 0.16	-3.88 ± 0.36
CUAUAGCAAUAUUACGUACG	0.0512 ± 0.15	-0.136 ± 0.14
CUAUAGCAAUAUUACGUCCU	-3.39 ± 0.22	-2.7 ± 0.29
CUCAAGCAAUAUUACGAAUG	-2.96 ± 0.15	-1.66 ± 0.2
CUCAAGCAAUAUUACGACCG	-1.26 ± 0.12	-0.638 ± 0.16
CUCAAGCAAUAUUACGAUCA	-1.3 ± 0.3	-1.09 ± 0.2
CUCAAGCAAUAUUACGCGAG	-2.5 ± 0.2	-3.14 ± 0.3
CUCAAGCAAUAUUACGCGCG	-3.19 ± 0.18	-2.41 ± 0.29
CUCAAGCAAUAUUACGCGUU	-4.07 ± 0.46	-2.92 ± 0.3
CUCAAGCAAUAUUACGGAGC	-3.11 ± 0.11	-2.54 ± 0.14
CUCAAGCAAUAUUACGGAUA	-2.72 ± 0.24	-2.32 ± 0.28
CUCAAGCAAUAUUACGGCUA		-2.22 ± 0.35
CUCAAGCAAUAUUACGGGAA	-2.51 ± 0.16	-1.19 ± 0.14
CUCAAGCAAUAUUACGGGCC	-4.15 ± 0.35	-2.78 ± 0.36
CUCAAGCAAUAUUACGGUAA	-1.8 ± 0.27	-1.66 ± 0.18
CUCAAGCAAUAUUACGUAAC	-4.43 ± 0.19	-2.08 ± 0.15
CUCAAGCAAUAUUACGUCCU	-4 ± 0.27	-2.79 ± 0.19
CUCAAGCAAUAUUACGUCGA	-3.37 ± 0.31	-1.41 ± 0.18
CUCAAGCAAUAUUACGUUCC	-3.08 ± 0.32	-2.32 ± 0.26

Sequence	self-splicing fitness (ln) (30 °C)	self-splicing fitness (ln) (37 °C)
CUCCAGCAAUAUUACGAACC	-3.49 ± 0.26	-1.91 ± 0.32
CUCCAGCAAUAUUACGAGAA	-2.14 ± 0.38	-1.91 ± 0.31
CUCCAGCAAUAUUACGAGUG	-2.45 ± 0.11	-1.34 ± 0.11
CUCCAGCAAUAUUACGAUGA	-2.36 ± 0.25	-2.7 ± 0.27
CUCCAGCAAUAUUACGCAUU	-3.38 ± 0.13	-3.51 ± 0.23
CUCCAGCAAUAUUACGCCCC	-4.17 ± 0.46	
CUCCAGCAAUAUUACGGCAA	-3.55 ± 0.17	-2.71 ± 0.16
CUCCAGCAAUAUUACGGCGG	-4.65 ± 0.28	-3.1 ± 0.22
CUCCAGCAAUAUUACGGUGG	-3.79 ± 0.19	-2.42 ± 0.18
CUCCAGCAAUAUUACGGUUC	-2.51 ± 0.17	-3.19 ± 0.35
CUCCAGCAAUAUUACGUAAA	-3.45 ± 0.17	-2.17 ± 0.18
CUCCAGCAAUAUUACGUAGA	-3.31 ± 0.15	-2.58 ± 0.16
CUCCAGCAAUAUUACGUAGG	-2.92 ± 0.11	-1.9 ± 0.15
CUCCAGCAAUAUUACGUCGG	-3.14 ± 0.15	-2.36 ± 0.15
CUCCAGCAAUAUUACGUGUG	-2.17 ± 0.069	-1.5 ± 0.08
CUCCAGCAAUAUUACGUUCC	-4.23 ± 0.46	-1.99 ± 0.35
CUCCAGCAAUAUUACGUUGG	-3.68 ± 0.19	-2.49 ± 0.21
CUCGAGCAAUAUUACGAGAU	-2.87 ± 0.23	-2.76 ± 0.27
CUCGAGCAAUAUUACGAGCG	-3.66 ± 0.43	-2.84 ± 0.25
